Test results from paper PMC4585913, “Crystal structure of Streptococcus pneumoniae pneumolysin provides key insights into early steps of pore formation” (Scientific Reports, 2015).

Biological target: the molecule itself
Assay: crystal structure; PLY 10.5 mg/ml co-crystallised with 5 mM KAu(CN)2 in 10% PEG 8000, 10% glycerol, 10% ethylene glycol, 100 mM HEPES pH 7.5; space group P212121, one molecule in the asymmetric unit; linear oligomer formed by crystal packing; 2.9 A

B1: Pneumolysin (Hexahis-PLY, wild type) (natural protein, Streptococcus pneumoniae)
chain: ANKAVNDFILAMNYDKKKLLTHQGESIENRFIKEGNQLPDEFVVIERKKRSLSTNTSDISVTATNDSRLYPGALLVVDETLLENNPTLLAVDRAPMTYSIDLPGLASSDSFLQVEDPSNSSVRGAVNDLLAKWHQDYGQVNNVPARMQYEKITAHSMEQLKVKFGSDFEKTGNSLDIDFNSVHSGEKQIQIVNFKQIYYTVSVDAVKNPGDVFQDTVTVEDLKQRGISAERPLVYISSVAYGRQVYLKLETTSKSDEVEAAFEALIKGVKVAPQTEWKQILDNTEVKAVILGGDPSSGARVVTGKVDMVEDLIQEGSRFTADHPGLPISYTTSFLRDNVVATFQNSTDYVETKVTAYRNGDLLLDHSGAYVAQYYITWNELSYDHQGKEVLTPKAWDRNGQDLTAHFTTSIPLKGNVRNLSVKIRECTGLAWEWWRTVYEKTDLPLVRKRTISIWGTTLYPQVEDKVEN
notes: Pneumolysin (PLY) of Streptococcus pneumoniae, wild type, cloned into pQE-30; the domains described span residues 1 to 470; The crystals run on SDS-AGE were grown without gold; Three residues of the His tag/linker are visible at the N-terminus of the model; It is written here as m1; also called native PLY; not shown: His6, N-terminal, kept
B1: binds.
